# Like-named read-outs stand apart in the source and are kept apart here.
# Test system: HPPD polypeptides (wild-type SEQ ID NO:1 and mutants)
# Protocol: For the generation of crude HPPD polypeptide extract in micro titer plates (MTP) for the determination of residual activity in inhibition assays, cells were grown in 40 or 150 μl LB medium containing 1% Glucose (Merck, Darmstadt, Germany) and 100 μg/ml ampicillin in a standard 96 well plate (Thermo Fisher Scientific, Waltham, USA) incubated for about 18 h in a humidity incubator at 37° C.
# 30 μl of this starter culture were added to 600 μl LB medium containing 100 μg/ml ampicillin and 150 mM Hepes (Merck, Darmstadt, Germany) as inoculum for the expression culture in 96 well plates (2 ml deep wells; HJ Bioanalytik, Erkelenz, Germany) The plates were sealed by an aluminium foil, and cells were incubated for 5 h at 37° C. on a plate shaker at 750 rpm. The expression was induced by addition of IPTG in a final concentration of 1 mM followed by further sealed incubation for about 18 h at 30° C. on a plate shaker at 750 rpm.
# Cells were harvested by centrifugation at 4° C., 2500 g for 15 min discarding the supernatant. Cell pellets were stored at −80° C. and lysed in 250 μl 1× BugBuster® (Merck, Darmstadt, Germany) in 140 mM Tris (pH 7.8), with 1:25000 diluted BNase® (Qiagen, Hilden, Germany) by incubation of the resuspended cells for 30 min at 4° C. and 1000 rpm. Lysates were clarified by centrifugation for 15 min at 4° C., 2500 g, and 150 μl supernatant were transferred in standard 96 well plate (Thermo Fisher Scientific, Waltham, USA) for subsequent testing in quadruplets.
# The activity of HPPD polypeptides was determined in absence or presence of HPPD inhibitors using the coupled HPPD activity assay (FIG. 1).
# For the determination of the residual activity, the apparent kinetic constant (kapp) of the determined substrate conversion was measured as kinetic changes in absorbance at 320 nm in a coupled assay, in that homogentisate (HGA) formed by HPPD from HPP is directly converted into the well absorbing molecule maleylacetoacetate (MAA) by a second enzyme homogentisate dioxygenase (HGD), applied in excess uniformly in all assays (see FIG. 1). The measurements were performed in 384 micro titer plates (Greiner Bio-One GmbH, Frickenhausen, Germany) by plate readers (Tecan infinite M1000 or M1000PRO, Tecan, Männedorf, Switzerland). The kcat/kM ratio of an enzymatic activity is proportional to the apparent kinetic constant kapp and is proportional to kcat/kM*[E] ([E]=enzyme concentration). […] As both kapp measurements in the presence and absence of inhibitor were performed by use of the identical enzyme sample, crude or purified, and thereby at the same enzyme concentration, the enzyme concentration eliminates from the calculation of residual activity and the ratio of both kapp directly indicates the change of kM due to the inhibition.
# [1] = in the presence of Cmpd. 1, 15 μM inhibitor, high substrate concentration, kapp normalized to kapp without inhibitor
# [2] = in the presence of Cmpd. 1, 15 μM inhibitor, high substrate concentration, total change in signal normalized to no inhibitor
# [3] = in the presence of Cmpd. 2, 15 μM inhibitor, high substrate concentration, kapp normalized to kapp without inhibitor
# [4] = in the presence of Cmpd. 2, 15 μM inhibitor, high substrate concentration, total change in signal normalized to no inhibitor
# [5] = in the presence of diketonitrile (DKN), 60 μM inhibitor, high substrate concentration, kapp normalized to kapp without inhibitor
# [6] = in the presence of diketonitrile (DKN), 60 μM inhibitor, high substrate concentration, total change in signal normalized to no inhibitor
# [7] = in the presence of mesotrione (MST), 60 μM inhibitor, high substrate concentration, kapp normalized to kapp without inhibitor
# [8] = in the presence of mesotrione (MST), 60 μM inhibitor, high substrate concentration, total change in signal normalized to no inhibitor
# [9] = kapp in presence of 50 μM Cmpd. 1, normalised to kapp without inhibitor, low substrate concentration
# [10] = total change in signal in presence of 50 μM Cmpd. 1, normalised to that without inhibitor, low substrate concentration
Molecule,Residual activity [1] [%],Residual turnover [2] [%],Residual activity [3],Residual turnover [4],Residual activity [5],Residual turnover [6],Residual activity [7] [%],Residual turnover [8],Residual activity [9] [%],Residual turnover [10] [%]
"CS(=O)(=O)c1ccc(C(=O)C2C(=O)CCCC2=O)c([N+](=O)[O-])c1 [mesotrione, 2-[4-(methylsulfonyl)-2-nitrobenzoyl]-1,3-cyclohexanedione, reference compound]",9,9,16%,22%,17%,17%,13,17%,–,–
"16 (protein, mutant HPPD polypeptide) MADLYENPMGLMGFEFIEFASPTPGTLEPIFEIMGFTKVATHRSKNVHLYRQGEINLILNNEPNSIASYFAAEHGPSVCGMAFRVKDSQKAYNRALELGAQPIHIDTGPMELNLPAIKGIGGAPLYLIDRFGEGSSIYDIDFVYLEGVERNPVGAGLKVIDHLTHNVYRGRMVYWANFYEKLFNFREARYFDIKGEYTGLTSKAMSAPDGMIRIPLNEESSKGAGQIEEFLMQFNGEGIQHVAFLTDDLVKTWDALKKIGMRFMTAPSDSYYEMLEGRLPDHGEPVDQLQARGILLDGSSVEGDKRLLLQIFSETLMGPVFFEFIQRKGDDGFGPDSFKVLFESKERDQVRRGVLTAD",45,69,94%,94%,n.i. (no inhibition was observed under the given conditions),n.i.,88,92%,–,–
"17 (protein, mutant HPPD polypeptide) MADLYENPMGLMGFEFIEFASPTPGTLEPIFEIMGFTKVATHRSKNVHLYRQGEINLILNNEPNSIASYFAAEHGPSVCGMAFRVKDSQKAYNRALELGAQPIHIDTGPMELNLPAIKGIGGAPLYLIDRFGEGSSIYDIDFVYLEGVERNPVGAGLKVIDHLTHNVYRGRMVYWANFYEKLFNFREARYFDIKGEYTGLTSKAMSAPDGMIRIPLNEESSKGAGQIEEFLMQFNGEGIQHVAFLTDDLVKTWDALKKIGMRFMTAPGDEYYEMLEGRLPDHGEPVDQLQARGILLDGSSVEGDKRLLLQIFSETLMGPVFFEFIQRKGDDGFGPDSFKVLFESVERDQVRRGVLTAD",43,68,90%,90%,n.i. (no inhibition was observed under the given conditions),95%,85,90%,29,54
"18 (protein, mutant HPPD polypeptide) MADLYENPMGLMGFEFIEFASPTPGTLEPIFEIMGFTKVATHRSKNVHLYRQGEINLILNNEPNSIASYFAAEHGPSVCGMAFRVKDSQKAYNRALELGAQPIHIDTGPMELNLPAIKGIGGAPLYLIDRFGEGSSIYDIDFVYLEGVERNPVGAGLKVIDHLTHNVYRGRMVYWANFYEKLFNFREARYFDIKGEYTGLTSKAMSAPDGMIRIPLNEESSKGAGQIEEFLMQFNGEGIQHVAFLTDDLVKTWDALKKIGMRFRTAPPDTYYEMLEGRLPDHGEPVDQLQARGILLDGSSVEGDKRLLLQIFSETLMGPVFFEFIQRKGHDGFGPDSFKVLFESIERDQVRRGVLTAD",67,79,n.i. (no inhibition was observed under the given conditions),n.i.,n.i. (no inhibition was observed under the given conditions),n.i.,–,–,–,–
"31 (protein, mutant HPPD polypeptide) MADLYENPMGLMGFEFIEFASPTPGTLEPIFEIMGFTKVATHRSKNVHLYRQGEINLILNNEPNSIASYFAAEHGPSVCGMAFRVKDSQKAYNRALELGAQPIHIDTGPMELNLPAIKGIGGAPLYLIDRFGEGSSIYDIDFVYLEGVERNPVGAGLKVIDHLTHNVYRGRMVYWANFYEKLFNFREARYFDIKGEYTGLTSKAMSAPDGMIRIPLNEESSKGAGQIEEFLMQFNGEGIQHVAFLTDDLVKTWDALKKIGMRFMTAPGDEYYEMLEGRLPDHGEPVDQLQARGILLDGSSVEGDKRLLLQIFSETLMGPVFFEFIQRKGDDGFGPHSFKVLFESVERDQVRRGVLTAD",40,67,95%,n.i.,n.i. (no inhibition was observed under the given conditions),n.i.,83,n.i.,50,81
"8 (protein, mutant HPPD polypeptide) MADLYENPMGLMGFEFIEFASPTPGTLEPIFEIMGFTKVATHRSKNVHLYRQGEINLILNNEPNSIASYFAAEHGPSVCGMAFRVKDSQKAYNRALELGAQPIHIDTGPMELNLPAIKGIGGAPLYLIDRFGEGSSIYDIDFVYLEGVERNPVGAGLKVIDHLTHNVYRGRMVYWANFYEKLFNFREARYFDIKGEYTGLTSKAMSAPDGMIRIPLNEESSKGAGQIEEFLMQFNGEGIQHVAFLTDDLVKTWDALKKIGMRFMTAPPDTYYEMLEGRLPDHGEPVDQLQARGILLDGSSVEGDKRLLLQIFSETLMGPVFFEFIQRKGDDGFGPDSFKVLFESIERDQVRRGVLTAD",21,44,67%,74%,91%,95%,70,85%,–,–
"33 (protein, mutant HPPD polypeptide) MADLYENPMGLMGFEFIEFASPTPGTLEPIFEIMGFTKVATHRSKNVHLYRQGEINLILNNEPNSIASYFAAEHGPSVCGMAFRVKDSQKAYNRALELGAQPIHIDTGPMELNLPAIKGIGGAPLYLIDRFGEGSSIYDIDFVYLEGVERNPVGAGLKVIDHLTHNVYRGRMVYWANFYEKLFNFREARYFDIKGEYTGLTSKAMSAPDGMIRIPLNEESSKGAGQIEEFLMQFNGEGIQHVAFLTDDLVKTWDALKKIGMRFMTAPGDEYYEMLEGRLPDHGEPVDQLQARGILLDGSSVEGDKRLLLQIFSETLMGPVFFEFIQRKGDDGFGPDSFKRLFESVERDQVRRGVLTAD",–,–,–,–,–,–,–,–,40,65
"60 (protein, mutant HPPD polypeptide) MADLYENPMGLMGFEFIEFASPTPGTLEPIFEIMGFTKVATHRSKNVHLYRQGEINLILNNEPNSIASYFAAEHGPSVCGMAFRVKDSQKAYNRALELGAQPIHIDTGPMELNLPAIKGIGGAPLYLIDRFGEGSSIYDIDFVYLEGVERNPVGAGLKVIDHLTHNVYRGRMVYWANFYEKLFNFREARYFDIKGEYTGLTSKAMSAPDGMIRIPLNEESSKGAGQIEEFLMQFNGEGIQHVAFLTDDLVKTWDALKKIGMRFRTAPGDEYYEMLEGRLPDHGEPVDQLQARGILLDGSSVEGDKRLLLQIFSETLMGPVFFEFIQRKGHDGFGPDSFKVLFEQVERDQVRRGVLTAD",–,–,–,–,–,–,–,–,64,84
"36 (protein, mutant HPPD polypeptide) MADLYENPMGLMGFEFIEFASPTPGTLEPIFEIMGFTKVATHRSKNVHLYRQGEINLILNNEPNSIASYFAAEHGPSVCGMAFRVKDSQKAYNRALELGAQPIHIDTGPMELNLPAIKGIGGAPLYLIDRFGEGSSIYDIDFVYLEGVERNPVGAGLKVIDHLTHNVYRGRMVYWANFYEKLFNFREARYFDIKGEYTGLTSKAMSAPDGMIRIPLNEESSKGAGQIEEFLMQFNGEGIQHVAFLTDDLVKTWDALKKIGMRFRTAPGDEYYEMLEGRLPDHGEPVDQLQARGILLDGSSVEGDKRLLLQIFSETLMGPVFFEFIQRKGHDGFGPDSFKVLFESMERDQVRRGVLTAD",–,–,–,–,–,–,–,–,67,85

# Reference: patent US10597674B2, “HPPD variants and methods of use” (BASF Agricultural Solutions Seed, US LLC, priority 2015, dated 2020)
